In PMC5824745:

How the values were obtained:
[1] = molecular target: eukaryotic Initiation Factor 4E (eIF4E), wild type (mouse (endogenous in forebrain)) (UniProt P63073); test: pull-down; cap-column pulldown: 500 ug forebrain lysate protein with 50 ul m7GDP agarose in buffer C (50 mM MOPS-KOH pH 7.4, 100 mM NaCl, 50 mM NaF, 0.5 mM EDTA, 0.5 mM EGTA, 0.1 mM GTP), 90 min at 4 C; eIF4E held by its ligand m7GDP; cap-bound fraction immunoblotted and quantified, normalised to input
eIF4G = eIF4G (UniProt Q6NZJ6); test: m7GDP-agarose cap pull-down, immunoblot; settings: reference: wild-type mouse forebrain; sites S209
Gapdh = Gapdh (UniProt P16858); test: m7GDP-agarose cap pull-down, immunoblot; settings: reference: wild-type mouse forebrain; sites S209
rpL13a = rpL13a (UniProt P19253); test: m7GDP-agarose cap pull-down, immunoblot; settings: reference: wild-type mouse forebrain; sites S209

Chain of Gapdh, P16858 1-333 (natural protein; other documents disagree on this pair) (P16858 whole entry): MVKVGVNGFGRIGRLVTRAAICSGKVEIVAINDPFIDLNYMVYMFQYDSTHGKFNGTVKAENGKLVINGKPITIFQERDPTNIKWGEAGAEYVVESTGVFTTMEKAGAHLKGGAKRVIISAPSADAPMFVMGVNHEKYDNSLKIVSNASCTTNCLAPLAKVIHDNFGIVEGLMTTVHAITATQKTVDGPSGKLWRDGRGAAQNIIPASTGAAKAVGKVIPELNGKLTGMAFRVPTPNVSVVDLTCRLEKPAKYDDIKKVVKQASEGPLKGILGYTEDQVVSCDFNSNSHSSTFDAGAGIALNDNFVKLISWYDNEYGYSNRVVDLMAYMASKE

cap-bound protein (arbitrary units, normalised to input) (arbitrary units) [1] | other: cap-bound band intensity normalized to input (eIF4G) | other: cap-bound band intensity normalized to input (Gapdh) | other: cap-bound band intensity normalized to input (rpL13a) | Substance
0.998 | – | – | – | Gapdh, P16858 1-333 (natural protein; other documents disagree on this pair)
– | same; reference 1.002 ± 0.149 | same; reference 0.998 ± 0.254 | weaker; reference 0.9975 ± 0.1723 | eIF4E (from UniProt P63073) 4Eki (S209A knock-in) forebrain
